Experimental data as given in PMC9482650, “Quantitative fragmentomics allow affinity mapping of interactomes” (Nature Communications, 2022).

T1: PDZRN3_1, Q9UPQ7
T1 sequence (Q9UPQ7 244-349, limits assumed, looked up): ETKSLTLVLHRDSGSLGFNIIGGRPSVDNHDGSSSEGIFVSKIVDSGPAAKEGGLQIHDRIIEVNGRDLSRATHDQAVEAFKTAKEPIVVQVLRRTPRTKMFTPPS

T2: ARHGAP21, Q5T5U3
T2 sequence (Q5T5U3 45-169, limits assumed, looked up): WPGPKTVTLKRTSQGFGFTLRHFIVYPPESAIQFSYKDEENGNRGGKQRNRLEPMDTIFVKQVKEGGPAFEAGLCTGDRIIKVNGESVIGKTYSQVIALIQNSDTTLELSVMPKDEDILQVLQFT

T3: DFNB31_3, Q9P202
T3 sequence (Q9P202 811-907, limits assumed, looked up): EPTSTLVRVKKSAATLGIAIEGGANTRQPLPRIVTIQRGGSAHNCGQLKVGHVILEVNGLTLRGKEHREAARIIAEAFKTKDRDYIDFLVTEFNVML

T4: MPDZ_5, O75970
T4 sequence (O75970 695-796, limits assumed, looked up): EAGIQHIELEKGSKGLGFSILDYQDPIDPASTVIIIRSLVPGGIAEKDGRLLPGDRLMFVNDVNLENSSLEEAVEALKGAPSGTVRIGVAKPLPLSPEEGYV

T5: MPDZ_12, O75970
T5 sequence (O75970 1857-1958, limits assumed, looked up): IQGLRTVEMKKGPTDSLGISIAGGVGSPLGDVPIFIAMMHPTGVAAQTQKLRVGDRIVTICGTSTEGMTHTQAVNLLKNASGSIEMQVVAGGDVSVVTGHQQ

T6: MPP7, Q5T2T1
T6 sequence (Q5T2T1 134-230, limits assumed, looked up): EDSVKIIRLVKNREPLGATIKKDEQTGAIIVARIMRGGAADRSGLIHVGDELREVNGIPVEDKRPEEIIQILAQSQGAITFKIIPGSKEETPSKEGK

T7: GRIP1_4, Q9Y3R0
T7 sequence (Q9Y3R0 467-571, limits assumed, looked up): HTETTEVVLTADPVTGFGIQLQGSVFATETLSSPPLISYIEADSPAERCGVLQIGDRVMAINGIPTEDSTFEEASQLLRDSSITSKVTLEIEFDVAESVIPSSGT

T8: DFNB31_2, Q9P202
T8 sequence (Q9P202 274-371, limits assumed, looked up): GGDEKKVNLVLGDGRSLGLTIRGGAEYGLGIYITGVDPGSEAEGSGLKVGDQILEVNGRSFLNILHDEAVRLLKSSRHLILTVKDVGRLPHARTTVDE

T9: DLG3_2, Q92796
T9 sequence (Q92796 221-321, limits assumed, looked up): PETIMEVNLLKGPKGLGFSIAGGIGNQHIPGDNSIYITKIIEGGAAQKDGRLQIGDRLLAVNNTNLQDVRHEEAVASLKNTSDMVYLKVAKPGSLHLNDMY

T10: PDZD2_2, O15018
T10 sequence (O15018 329-429, limits assumed, looked up): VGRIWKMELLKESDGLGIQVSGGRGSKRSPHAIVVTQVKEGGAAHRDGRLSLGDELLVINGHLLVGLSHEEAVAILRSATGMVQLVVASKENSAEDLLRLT

T11: SNTA1, Q13424
T11 sequence (Q13424 82-180, limits assumed, looked up): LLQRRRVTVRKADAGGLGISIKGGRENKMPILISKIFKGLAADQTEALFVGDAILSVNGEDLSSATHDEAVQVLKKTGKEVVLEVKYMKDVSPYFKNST

T12: TX1BP3, O14907
T12 sequence (O14907 10-122, limits assumed, looked up): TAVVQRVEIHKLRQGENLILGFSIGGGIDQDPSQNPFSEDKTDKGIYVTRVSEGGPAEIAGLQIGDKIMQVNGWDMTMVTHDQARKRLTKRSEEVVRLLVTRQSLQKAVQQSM

T13: MPDZ_10, O75970
T13 sequence (O75970 1624-1722, limits assumed, looked up): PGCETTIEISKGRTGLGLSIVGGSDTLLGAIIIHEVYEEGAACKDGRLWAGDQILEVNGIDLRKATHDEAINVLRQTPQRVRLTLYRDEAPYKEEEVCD


Molecular target: Inadl_3, Q8NI35
Experiment: holdup assay
Design: key: below the threshold = too weak to quantify, mostly under pKd 3.1 to 4
Settings: plain residues with an end cap or a label only (N-terminal biotin on a linker: ado-ado)

Chain of Inadl_3, Q8NI35 (Q8NI35 359-469): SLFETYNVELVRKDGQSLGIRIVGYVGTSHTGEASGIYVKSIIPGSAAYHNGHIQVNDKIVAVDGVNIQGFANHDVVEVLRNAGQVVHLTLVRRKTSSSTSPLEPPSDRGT

pKd	Binder
below the threshold	PYPTADHMLA [JUP, P14923]

Molecular target: TJP1_2, Q07157
Experiment: holdup assay
Design: key: below the threshold = too weak to quantify, mostly under pKd 3.1 to 4
Settings: plain residues with an end cap or a label only (N-terminal biotin on a linker: ado-ado)

Chain of TJP1_2, Q07157 (Q07157 181-274): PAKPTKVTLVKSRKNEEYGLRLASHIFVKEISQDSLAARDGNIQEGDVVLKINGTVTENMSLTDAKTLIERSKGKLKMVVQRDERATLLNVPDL

pKd	Binder
below the threshold	PYPTADHMLA [JUP, P14923]

Molecular target: IL16_1, Q14005
Experiment: holdup assay
Design: key: below the threshold = too weak to quantify, mostly under pKd 3.1 to 4
Settings: plain residues with an end cap or a label only (N-terminal biotin on a linker: ado-ado)

Chain of IL16_1, Q14005 (Q14005 210-306): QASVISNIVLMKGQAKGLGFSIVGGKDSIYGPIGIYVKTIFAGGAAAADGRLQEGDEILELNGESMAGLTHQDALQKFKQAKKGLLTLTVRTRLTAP

pKd	Binder
below the threshold	PYPTADHMLA [JUP, P14923]

Molecular target: FRMPD3, Q5JV73
Experiment: holdup assay
Design: key: below the threshold = too weak to quantify, mostly under pKd 3.1 to 4
Settings: plain residues with an end cap or a label only (N-terminal biotin on a linker: ado-ado)

Chain of FRMPD3, Q5JV73 (Q5JV73 12-100): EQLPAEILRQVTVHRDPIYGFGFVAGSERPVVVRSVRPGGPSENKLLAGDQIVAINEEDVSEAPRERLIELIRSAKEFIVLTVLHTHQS

pKd	Binder
below the threshold	PYPTADHMLA [JUP, P14923]

Molecular target: T1, PDZRN3_1, Q9UPQ7
Experiment: holdup assay
Design: key: below the threshold = too weak to quantify, mostly under pKd 3.1 to 4
Settings: plain residues with an end cap or a label only (N-terminal biotin on a linker: ado-ado)

pKd	Binder
below the threshold	PYPTADHMLA [JUP, P14923]

Molecular target: Inadl_4, Q8NI35
Experiment: holdup assay
Design: key: below the threshold = too weak to quantify, mostly under pKd 3.1 to 4
Settings: plain residues with an end cap or a label only (N-terminal biotin on a linker: ado-ado)

Chain of Inadl_4, Q8NI35 (Q8NI35 547-651): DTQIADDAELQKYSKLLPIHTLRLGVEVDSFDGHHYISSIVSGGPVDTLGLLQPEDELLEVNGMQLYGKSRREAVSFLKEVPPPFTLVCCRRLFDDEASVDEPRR

pKd	Binder
below the threshold	PYPTADHMLA [JUP, P14923]

Molecular target: T2, ARHGAP21, Q5T5U3
Experiment: holdup assay
Design: key: below the threshold = too weak to quantify, mostly under pKd 3.1 to 4
Settings: plain residues with an end cap or a label only (N-terminal biotin on a linker: ado-ado)

pKd	Binder
below the threshold	PYPTADHMLA [JUP, P14923]

Molecular target: T3, DFNB31_3, Q9P202
Experiment: holdup assay
Design: key: below the threshold = too weak to quantify, mostly under pKd 3.1 to 4
Settings: plain residues with an end cap or a label only (N-terminal biotin on a linker: ado-ado)

pKd	Binder
3.83	PYPTADHMLA [JUP, P14923]

Molecular target: LIMK2, P53671
Experiment: holdup assay
Design: key: below the threshold = too weak to quantify, mostly under pKd 3.1 to 4
Settings: plain residues with an end cap or a label only (N-terminal biotin on a linker: ado-ado)

Chain of LIMK2, P53671 (P53671 143-248): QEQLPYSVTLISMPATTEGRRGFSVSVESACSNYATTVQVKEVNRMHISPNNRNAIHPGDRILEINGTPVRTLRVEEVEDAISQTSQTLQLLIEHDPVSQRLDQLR

pKd	Binder
below the threshold	PYPTADHMLA [JUP, P14923]

Molecular target: GRIP2_6, Q9C0E4
Experiment: holdup assay
Design: key: below the threshold = too weak to quantify, mostly under pKd 3.1 to 4
Settings: plain residues with an end cap or a label only (N-terminal biotin on a linker: ado-ado)

Chain of GRIP2_6, Q9C0E4 (Q9C0E4 648-740): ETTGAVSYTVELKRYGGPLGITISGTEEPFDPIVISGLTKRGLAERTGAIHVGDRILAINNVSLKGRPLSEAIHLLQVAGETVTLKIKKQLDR

pKd	Binder
below the threshold	PYPTADHMLA [JUP, P14923]

Molecular target: T4, MPDZ_5, O75970
Experiment: holdup assay
Design: key: below the threshold = too weak to quantify, mostly under pKd 3.1 to 4
Settings: plain residues with an end cap or a label only (N-terminal biotin on a linker: ado-ado)

pKd	Binder
below the threshold	PYPTADHMLA [JUP, P14923]

Molecular target: T5, MPDZ_12, O75970
Experiment: holdup assay
Design: key: below the threshold = too weak to quantify, mostly under pKd 3.1 to 4
Settings: plain residues with an end cap or a label only (N-terminal biotin on a linker: ado-ado)

pKd	Binder
below the threshold	PYPTADHMLA [JUP, P14923]

Molecular target: T6, MPP7, Q5T2T1
Experiment: holdup assay
Design: key: below the threshold = too weak to quantify, mostly under pKd 3.1 to 4
Settings: plain residues with an end cap or a label only (N-terminal biotin on a linker: ado-ado)

pKd	Binder
below the threshold	PYPTADHMLA [JUP, P14923]

Molecular target: T7, GRIP1_4, Q9Y3R0
Experiment: holdup assay
Design: key: below the threshold = too weak to quantify, mostly under pKd 3.1 to 4
Settings: plain residues with an end cap or a label only (N-terminal biotin on a linker: ado-ado)

pKd	Binder
below the threshold	PYPTADHMLA [JUP, P14923]

Molecular target: MAGI3_2, Q5TCQ9
Experiment: holdup assay
Design: key: below the threshold = too weak to quantify, mostly under pKd 3.1 to 4
Settings: plain residues with an end cap or a label only (N-terminal biotin on a linker: ado-ado)

Chain of MAGI3_2, Q5TCQ9 (Q5TCQ9 398-503): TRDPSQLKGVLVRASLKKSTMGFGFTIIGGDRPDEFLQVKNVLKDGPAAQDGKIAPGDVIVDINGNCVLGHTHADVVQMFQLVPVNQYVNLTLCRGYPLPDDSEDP

pKd	Binder
3.73	PYPTADHMLA [JUP, P14923]

Molecular target: T8, DFNB31_2, Q9P202
Experiment: holdup assay
Design: key: below the threshold = too weak to quantify, mostly under pKd 3.1 to 4
Settings: plain residues with an end cap or a label only (N-terminal biotin on a linker: ado-ado)

pKd	Binder
below the threshold	PYPTADHMLA [JUP, P14923]

Molecular target: HTRA1, Q92743
Experiment: holdup assay
Design: key: below the threshold = too weak to quantify, mostly under pKd 3.1 to 4
Settings: plain residues with an end cap or a label only (N-terminal biotin on a linker: ado-ado)

Chain of HTRA1, Q92743 (Q92743 360-477): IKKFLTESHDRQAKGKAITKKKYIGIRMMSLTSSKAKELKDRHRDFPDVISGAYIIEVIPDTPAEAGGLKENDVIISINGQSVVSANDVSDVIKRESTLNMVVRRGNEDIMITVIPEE

pKd	Binder
4.32	PYPTADHMLA [JUP, P14923]

Molecular target: T9, DLG3_2, Q92796
Experiment: holdup assay
Design: key: below the threshold = too weak to quantify, mostly under pKd 3.1 to 4
Settings: plain residues with an end cap or a label only (N-terminal biotin on a linker: ado-ado)

pKd	Binder
4.05	PYPTADHMLA [JUP, P14923]

Molecular target: T10, PDZD2_2, O15018
Experiment: holdup assay
Design: key: below the threshold = too weak to quantify, mostly under pKd 3.1 to 4
Settings: plain residues with an end cap or a label only (N-terminal biotin on a linker: ado-ado)

pKd	Binder
below the threshold	PYPTADHMLA [JUP, P14923]

Molecular target: T11, SNTA1, Q13424
Experiment: holdup assay
Design: key: below the threshold = too weak to quantify, mostly under pKd 3.1 to 4
Settings: plain residues with an end cap or a label only (N-terminal biotin on a linker: ado-ado)

pKd	Binder
below the threshold	PYPTADHMLA [JUP, P14923]

Molecular target: T12, TX1BP3, O14907
Experiment: holdup assay
Design: key: below the threshold = too weak to quantify, mostly under pKd 3.1 to 4
Settings: plain residues with an end cap or a label only (N-terminal biotin on a linker: ado-ado)

pKd	Binder
4.01	PYPTADHMLA [JUP, P14923]

Molecular target: PDLIM1, O00151
Experiment: holdup assay
Design: key: below the threshold = too weak to quantify, mostly under pKd 3.1 to 4
Settings: plain residues with an end cap or a label only (N-terminal biotin on a linker: ado-ado)

Chain of PDLIM1, O00151 (O00151 1-87): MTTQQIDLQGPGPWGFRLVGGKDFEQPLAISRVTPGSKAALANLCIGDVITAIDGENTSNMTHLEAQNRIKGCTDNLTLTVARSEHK

pKd	Binder
below the threshold	PYPTADHMLA [JUP, P14923]

Molecular target: T13, MPDZ_10, O75970
Experiment: holdup assay
Design: key: below the threshold = too weak to quantify, mostly under pKd 3.1 to 4
Settings: plain residues with an end cap or a label only (N-terminal biotin on a linker: ado-ado)

pKd	Binder
below the threshold	PYPTADHMLA [JUP, P14923]

Molecular target: MAGI2_2, Q86UL8
Experiment: holdup assay
Design: key: below the threshold = too weak to quantify, mostly under pKd 3.1 to 4
Settings: plain residues with an end cap or a label only (N-terminal biotin on a linker: ado-ado)

Chain of MAGI2_2, Q86UL8 (Q86UL8 410-522): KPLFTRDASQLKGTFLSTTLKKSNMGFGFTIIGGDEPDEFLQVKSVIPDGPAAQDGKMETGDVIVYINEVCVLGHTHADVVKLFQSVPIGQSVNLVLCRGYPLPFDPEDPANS

pKd	Binder
below the threshold	PYPTADHMLA [JUP, P14923]
